Laboratory results as given in paper PMC4947174 (Nature Communications, 2016).

B1: Pol I subunit A14 (natural protein, S. cerevisiae (endogenous in yeast), UniProt P50106 1-137, looked up)
chain: MMKGSRRTGNNTATTLNTPVVIHATQLPQHVSTDEVLQFLESFIDEKENIIDSTTMNTISGNAADADAAAVANTSLNIDTNLSSSISQLKRIQRDFKGLPPAQDFSAAPIQVSTTEKKETSIGVSATGGKKTTFADE
notes: A14, subunit of RNA polymerase I, S. cerevisiae; source: endogenous, S. cerevisiae; part of Pol I purified with Rrn3-ProtA (y2183)
B2: Pol I subunit AC40 (natural protein, S. cerevisiae (endogenous in yeast), UniProt P07703 1-335, looked up)
chain: MSNIVGIEYNRVTNTTSTDFPGFSKDAENEWNVEKFKKDFEVNISSLDAREANFDLINIDTSIANAFRRIMISEVPSVAAEYVYFFNNTSVIQDEVLAHRIGLVPLKVDPDMLTWVDSNLPDDEKFTDENTIVLSLNVKCTRNPDAPKGSTDPKELYNNAHVYARDLKFEPQGRQSTTFADCPVVPADPDILLAKLRPGQEISLKAHCILGIGGDHAKFSPVSTASYRLLPQINILQPIKGESARRFQKCFPPGVIGIDEGSDEAYVKDARKDTVSREVLRYEEFADKVKLGRVRNHFIFNVESAGAMTPEEIFFKSVRILKNKAEYLKNCPITQ
notes: AC40, subunit shared by RNA polymerases I and III, S. cerevisiae; source: endogenous, S. cerevisiae; part of Pol I purified with Rrn3-ProtA (y2183)
B3: Rrn3 (Pol I-specific initiation factor), overexpressed in yeast as Rrn3-TEV-ProtA-His7 (natural protein, S. cerevisiae)
chain: MMAFENTSKRPPQDFVAPIDQKKRKVQFSDSTGLVTLQPEEIKDEVFSAAMYSRFVKSALDDLDKNDSTQIGIIANQVALPSKNPERINDKNLNILLDILSSNINRIESSRGTFLIQSIINFEKWWELPPHTLSKYIYFIKILCSSIPKWWQDVSMILVSCFILPIKQTVCHHDMLKYFLRMIPSSMGFIDTYLAKFFPNKNDTRRKLVNYTSNLLKLRGYCSELGFQIWSLLIEKIISIDVELQNELDELDDDVDDDDLEEVDLEDDDDLDDDSGDDDDENCGNSNEELRSGAADGSQSDSEDMDIIEGMDGTEEYNVELTQGIKELSTKLDSILTLVSTHVEEQVTPESLESGEGVGVFNTLTTLFKTHVLPTYYTRSIQYIMFHVSQQQLELMDSFLVTLIDISFAVNEAAEKKIKSLQYLGSYIARAKKLSRTQIIFVASYLTSWLNRYVIEREEEVDQRGGMERFKHFYAAFQALCYIFCFRHNIFRDTDGNWECELDKFFQRMVISKFNPLKFCNENVMLMFARIAQQESVAYCFSIIENNNNERLRGIIGKADSDKKENSAQANTTSSSWSLATRQQFIDLQSYFPYDPLFLKNYKILMKEYYIEWSEASGEYESDGSDD
notes: Rrn3, RNA polymerase I-specific transcription initiation factor, S. cerevisiae; Released from the beads by TEV protease; source: S. cerevisiae strain y2183 with plasmid 729 (Ycplac111-GAL-Rrn3-TEV-ProtA-HIS), galactose-induced; purified in complex with Pol I (IgG beads, TEV elution)
B4: Pol I subunit AC19 (natural protein, S. cerevisiae (endogenous in yeast), UniProt P28000 1-142, looked up)
chain: MTEDIEQKKTATEVTPQEPKHIQEEEEQDVDMTGDEEQEEEPDREKIKLLTQATSEDGTSASFQIVEEDHTLGNALRYVIMKNPDVEFCGYSIPHPSENLLNIRIQTYGETTAVDALQKGLKDLMDLCDVVESKFTEKIKSM
notes: AC19, subunit shared by RNA polymerases I and III, S. cerevisiae; source: endogenous, S. cerevisiae; part of Pol I purified with Rrn3-ProtA (y2183)

Experiments:
[1] = target: Rrn3-free RNA polymerase I (WT Pol I) purified through A135-TEV-ProtA (S. cerevisiae (endogenous in yeast) | S. cerevisiae) (UniProt P10964)
Sequence of Rrn3-free RNA polymerase I (WT Pol I) purified through A135-TEV-ProtA (S. cerevisiae (endogenous in yeast) | S. cerevisiae) (P10964 whole entry, looked up): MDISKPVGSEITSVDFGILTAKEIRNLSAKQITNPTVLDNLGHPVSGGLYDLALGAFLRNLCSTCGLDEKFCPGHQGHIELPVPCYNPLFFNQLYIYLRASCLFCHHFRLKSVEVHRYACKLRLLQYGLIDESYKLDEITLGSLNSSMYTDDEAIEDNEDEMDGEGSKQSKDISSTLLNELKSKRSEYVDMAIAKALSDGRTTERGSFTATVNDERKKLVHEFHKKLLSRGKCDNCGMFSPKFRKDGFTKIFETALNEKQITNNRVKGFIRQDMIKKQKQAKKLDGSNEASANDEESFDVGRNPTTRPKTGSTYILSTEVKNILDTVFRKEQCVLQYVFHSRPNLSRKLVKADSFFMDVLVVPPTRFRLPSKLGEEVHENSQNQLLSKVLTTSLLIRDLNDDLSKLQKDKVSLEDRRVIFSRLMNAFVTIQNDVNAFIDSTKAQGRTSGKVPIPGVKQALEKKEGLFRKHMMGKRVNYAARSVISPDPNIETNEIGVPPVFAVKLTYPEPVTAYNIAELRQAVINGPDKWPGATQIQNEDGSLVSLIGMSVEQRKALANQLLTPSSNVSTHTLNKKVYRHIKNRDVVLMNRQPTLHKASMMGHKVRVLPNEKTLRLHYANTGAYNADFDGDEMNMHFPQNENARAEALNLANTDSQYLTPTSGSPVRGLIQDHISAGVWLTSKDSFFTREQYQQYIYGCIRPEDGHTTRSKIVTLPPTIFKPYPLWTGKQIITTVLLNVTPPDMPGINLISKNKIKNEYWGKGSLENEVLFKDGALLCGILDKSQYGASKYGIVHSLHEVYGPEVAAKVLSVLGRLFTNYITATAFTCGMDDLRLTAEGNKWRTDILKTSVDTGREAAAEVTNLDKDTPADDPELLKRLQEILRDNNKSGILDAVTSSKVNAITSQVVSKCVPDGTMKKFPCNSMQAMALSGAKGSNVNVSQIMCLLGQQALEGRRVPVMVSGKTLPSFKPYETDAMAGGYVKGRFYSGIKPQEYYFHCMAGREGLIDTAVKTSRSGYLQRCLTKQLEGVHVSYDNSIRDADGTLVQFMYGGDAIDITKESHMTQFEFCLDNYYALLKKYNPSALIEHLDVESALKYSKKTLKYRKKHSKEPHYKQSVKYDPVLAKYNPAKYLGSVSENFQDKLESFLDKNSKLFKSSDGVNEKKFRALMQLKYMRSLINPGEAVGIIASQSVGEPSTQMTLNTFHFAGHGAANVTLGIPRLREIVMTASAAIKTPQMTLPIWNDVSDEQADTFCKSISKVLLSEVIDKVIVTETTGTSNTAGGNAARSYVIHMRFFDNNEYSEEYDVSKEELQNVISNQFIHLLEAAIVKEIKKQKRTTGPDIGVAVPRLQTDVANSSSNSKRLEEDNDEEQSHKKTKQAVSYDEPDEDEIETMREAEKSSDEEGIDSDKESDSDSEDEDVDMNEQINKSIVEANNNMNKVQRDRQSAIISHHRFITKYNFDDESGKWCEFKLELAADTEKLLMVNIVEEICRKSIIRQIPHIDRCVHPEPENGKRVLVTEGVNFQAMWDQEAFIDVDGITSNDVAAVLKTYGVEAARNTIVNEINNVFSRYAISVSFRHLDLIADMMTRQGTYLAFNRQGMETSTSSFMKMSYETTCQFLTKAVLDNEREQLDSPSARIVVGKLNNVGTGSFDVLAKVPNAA

[2] = target: B3; assay: cryo-EM structure; Pol I-Rrn3 complex purified from yeast, cross-linked with 0.5% glutaraldehyde for 2 min; 20 mM Hepes pH 7.8, 100 mM ammonium acetate, 2 mM MgCl2; 32,438 particles of intact complex; 7.5 Å; crystal structures of Pol I and Rrn3 docked into the map; conditions: both partners purified
[3] = target: T1, Pol I subunit A190 (largest subunit) (S. cerevisiae (endogenous in yeast), UniProt P10964 1-1664); assay: as above; conditions: both partners purified
T1 construct: A190, largest subunit of RNA polymerase I, S. cerevisiae; source: endogenous, S. cerevisiae; part of Pol I purified with Rrn3-ProtA (y2183) or through A135-ProtA (y2423)
T1 sequence (P10964 whole entry): as the sequence (P10964 whole entry, looked up) above

Molecule	binding result [2]	also measured
Recombinant His6-Rrn3 (from UniProt P36070 1-627) (natural protein)	–	promoter-dependent in vitro transcription: purified Pol I-Rrn3 complex against the same concentration of Rrn3-free Pol I with recombinant His6-Rrn3 (70 nM) and CF (20 nM) [1]: < 10 fold
B1	binds	–
B2	binds	–
B3	–	binding result [3]: binds
B4	binds	–
